{"source": "patent US20190248924A1", "target": "human CTLA-4Ig (R&D Systems) (human) (UniProt P16410)", "sequence (P16410 37-162)": "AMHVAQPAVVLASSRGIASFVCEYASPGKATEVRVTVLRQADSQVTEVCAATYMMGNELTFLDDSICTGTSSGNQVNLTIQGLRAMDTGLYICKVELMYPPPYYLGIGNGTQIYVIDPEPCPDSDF", "assay": "ELISA, human CTLA-4Ig immobilized on the plate, detection with anti-human Fab-HRP, OD450; unit taken from the x axis; fit value of a flat control curve, far beyond the range tested"}
{"substance": "hIgG Control (antibody)", "values": [{"measurement": "EC50", "value": 51.3, "unit": "µM"}]}
